B1: TMEM106C (parent)
chain: TVPEILVHNIVIFMRTSVKISYIG
B2: NCK2 (parent)
chain: YVERKNSLKKGSLVKNLKDTLGLG

Variants of: B1
Assay: protein stability index of a GFP-peptide fusion (GPS, HEK-293T) (PSI 1-6); higher = more stable
Settings: c terminus: a fixed tail appended
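Also: lentivirally expressed fusions sorted by FACS into six bins by GFP to DsRed ratio, PSI derived from sequencing read proportions per bin multiplied by bin number.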

Protein stability index: each site, then its substitutions
M14: C 2.99 | K 3.19 | W 2.87 | S 4.03 | G 3.13 | A 3.73 | Q 3.58 | Y 2.6 | I 2.85 | L 3.05 | H 2.91
L6: W 2.8 | R 4.09 | K 2.5 | H 3.88 | C 4.05 | M 2.78 | V 4.06 | I 2.59 | P 2.63 | G 3.13 | E 2.11 | Q 2.44 | Y 2.26 | F 2.25
F13: E 2.27 | V 3.33 | L 4.27 | S 2.83 | C 3.25 | Q 2.96 | M 2.42 | G 3.8 | Y 3.23 | H 2.11 | A 3.07 | R 2.3 | K 3.49 | P 3.22
V11: A 4.26 | P 2.92 | G 3.12 | H 3.13 | Q 1.83 | N 2.86 | S 3.97 | D 2.52
V2: H 2.77 | L 3.28 | C 2.31 | D 2.5 | E 2.47 | W 2 | G 2.98 | Y 3.53 | S 2.63 | P 3.94 | N 2.01
V18: A 4.48 | N 3.44 | F 2.33 | E 2.77 | Q 3.31 | L 4.24 | S 3.02 | Y 4.01 | W 2.45 | G 2.88 | D 2.15 | K 2.77
T1: W 2.7 | L 2.03 | E 2.4
R15: L 3.26 | K 3.46 | T 2.69 | E 1.63 | G 3.23 | F 3.57 | P 2.47 | I 4.22 | M 3.77 | C 2.91 | Q 2.73 | A 2.33
P3: G 3.81 | H 2.52 | I 1.79 | N 1.33 | S 3.98 | K 3.27 | Q 2.68 | L 1.85 | R 3.41
T16: I 1.93 | W 2.85 | F 3.06 | R 2.5 | Q 2.46 | E 2.54 | Y 3.88 | D 2.97 | S 2.54 | N 2.98
S17: L 2.29 | Q 3.81 | I 2.2 | K 4.27 | H 2.76 | D 2.48 | A 4.19 | N 3.88 | C 3.88 | W 3.7 | M 2.69 | T 3.17
N9: C 2.85 | M 3.79 | H 2.15 | V 2.49 | I 2.82 | W 3.74 | E 2.96 | A 2.89 | Y 2.44 | Q 2.95 | P 3.7 | F 2.06
I5: R 2.19 | T 3.88 | Y 2.58 | L 2.94 | N 2.34 | M 2.67 | A 2.92 | K 1.73 | G 2.54 | F 3.14 | E 4.16 | D 3.24 | W 2.49 | S 2.36
I23: P 3.49 | H 1.77 | A 3.15 | D 3.85 | Y 3.25 | G 2.88 | F 3.86 | R 2.81 | S 3.05 | M 3.06 | W 3.22 | C 2.41 | T 3.01
H8: I 2.58 | T 2.41 | G 2.27 | D 3.5 | P 3.19 | K 3.34 | V 2.81 | S 3.74 | R 2.67 | L 3.28 | Q 2.63
G24: T 2.06 | H 2.84 | C 2.8 | M 3.57 | D 2.27 | N 3.8 | E 3.36 | V 2.95 | S 3.61 | W 2.75 | F 3.89 | K 2.98 | Y 2.61 | L 2.82
K19: L 3.2 | G 2.77 | Y 3.12 | A 3.17 | C 4.43 | N 3.38 | D 3.61 | M 1.77 | Q 3.02 | F 3.24 | E 4.38 | H 2.62
Y22: H 2.67 | W 2.65 | S 2.31 | L 2.73 | V 4.14 | C 2.5 | G 2.47 | M 3.99 | P 3
I10: F 3.5 | G 4.19 | W 3.61 | M 3.31 | K 4.3 | R 2.42 | V 2.92 | T 2.67 | C 2.67 | N 2.65 | Y 2.71 | E 3.64 | Q 2.94 | D 2.47
I12: E 3.69 | R 3.25 | L 3.84 | F 2.8 | S 2.88 | G 3.97 | Y 3.05 | C 2.8 | D 3.93 | P 2.19 | W 2.08
V7: W 3.68 | E 4.49 | L 2.24 | S 2.37 | P 3.59 | I 4.62 | A 3.25 | R 2.44 | H 3.09 | M 2.05 | N 2.83 | T 2.15
S21: M 3.51 | C 2.77 | D 2.53 | F 3.13 | G 1.99 | L 3.4 | H 2.81 | I 3.51 | K 2.53 | W 1.95
I20: Q 4.14 | S 3.33 | F 3.1 | P 3.39 | E 3.72 | V 1.4 | W 2.88 | N 1 | K 3.3 | H 4.04
E4: M 4.55 | I 2.02 | N 2.99 | Y 2.81 | T 2.5 | G 3.29 | Q 2.61 | K 2.94 | V 3.21 | F 2.67

Variants of: B2
Assay: as above
Settings: c terminus: a fixed tail appended

Protein stability index: each site, then its substitutions
E3: F 2.01 | G 1.41 | W 1.96 | H 1.72
L21: N 2.33 | T 2.44
V2: R 3.41 | Y 3.01 | P 3.81 | T 3.44 | D 3.38
K5: F 2.58 | Q 2.39 | V 2.2
N6: K 2.67 | E 2.85 | F 1.58
Y1: W 2.29 | M 3.64
R4: A 2.23
G24: L 1.28 | I 1.8
G22: C 2.01 | V 1.97 | H 2.01 | L 1.51 | Q 2.31 | N 2.46
S7: Q 2.15
V14: D 2.84 | S 2.07
D19: C 2.11 | H 1.47 | I 2.01
L8: A 2.42
G11: I 1.68
K10: T 1.82 | G 1.93
L23: Q 2.33 | D 2.76 | I 2.37 | A 2.96
L17: S 2.41 | C 2.55 | Y 2.73
K9: H 2.1 | I 2.51 | L 3.07 | E 2.59
N16: I 2.18 | Y 1.89
L13: A 3.01 | N 2.44 | D 2.8 | M 2.22 | I 2.13
K15: L 2.36 | D 2.7 | Q 2 | P 1.99
S12: W 2.17 | A 2.22 | R 2.22
T20: K 2.37 | E 2.17
K18: P 2.56

Source: the supplement of paper PMC10567573
